From patent publication CN115521375A (INST PASTEUR SHANGHAI CAS, dated 2022)

Experiments:
Test in all cases: cell-based or functional assay
[1] = target: SARS-CoV-2 B.1.351假病毒的S蛋白 (SARS-CoV-2 B.1.351)
[2] = target: SARS-CoV-2 B.1.1.7假病毒的S蛋白 (SARS-CoV-2 B.1.1.7)
[3] = target: SARS-CoV-2 B.1.617假病毒的S蛋白 (SARS-CoV-2 B.1.617)

| Binder | 半数抑制浓度(IC50), 假病毒中和试验 [1] [µg/mL] | 半数抑制浓度(IC50), 假病毒中和试验 [2] [µg/mL] | 半数抑制浓度(IC50), 假病毒中和试验 [3] [µg/mL] | 中和IC50, 假病毒中和试验 [1] [µg/mL] | 中和IC50, 假病毒中和试验 [2] [µg/mL] | 中和IC50, 假病毒中和试验 [3] [µg/mL] |
| --- | --- | --- | --- | --- | --- | --- |
| 单抗5G2 (antibody, also called 抗体5G2) heavy: EVLLQQSGPELVKPGASVKIPCKASGYTFTDYNMDWVKQSHGKSLEWIGDINPNSGFIIYNQKFKGKASLTVDKSSSTAYMELRSLTSEDTAVYYCAREGYGNNFDYWGQGTTLSVSSAKTTPPSVYPLAPGCGDTTGSSVTLGCLVKGYFPESVTVTWNSGSLSSSVHTFPALLQSGLYTMSSSVTVPSSTWPSQTVTCSVAHPASSTTVDKKLEPSGPISTINPCPPCKECHKCPAPNLEGGPSVFIFPPNIKDVLMISLTPKVTCVVVDVSEDDPDVQISWFVNNVEVHTAQTQTHREDYNSTIRVVSTLPIQHQDWMSGKEFKCKVNNKDLPSPIERTISKIKGLVRAPQVYILPPPAEQLSRKDVSLTCLVVGFNPGDISVEWTSNGHTEENYKDTAPVLDSDGSYFIYSKLNMKTSKWEKTDSFSCNVRHEGLKNYYLKKTISRSPGK light: DILLTQSPTILSVSPGERVSFSCRASQSIGTSIHWYQQRTKGSPRLLIKYASESISGIPSRFSGSGSGTDFTLSINSVESEDIGDYYCQQSYSWPTTFGAGTKLELK | 0.367 | 0.482 | 0.103 |  |  |  |
| 单抗3H3 (antibody, V domains shown, also called 抗体3H3) VH: QVQLQQPGAELVRPGASVKLSCKASGYSFTRFWMNWVKQRPGQGLEWIGMIHPSDSETRLNQKFKDKATLTVDKSSTTAYMQLSSPTSEDSAVYYCARKDYDYDAWFAYWGQGTLVTVSA VL: DIVLTQSPASLAVSLGQRATISCRASKSVSASVYSYMHWYQQKPGQPPKLLIYLASSLESGVPARFSGSGSGTDFTLNIHPVEEEDAATYYCHHSRELPPAFGGGTKLEIKR |  |  |  | 0.107 | 0.191 | 0.098 |
